Experimental data: ChEMBL document CHEMBL6109039, “Designed and synthesized novel tripeptides targeting diabetes and its related pathologies” (Eur J Med Chem, 2025)

Key:
[1] = compound: N=C(N)NCCC[C@H](N)C(=O)N[C@@H](Cc1c[nH]c2ccccc12)C(=O)N[C@@H](Cc1c[nH]c2ccccc12)C(=O)O; assay: Inhibition of porcine pancreatic Alpha-amylase using starch as substrate assessed as Km pre-incubated for 20 mins followed by substrate addition and measured after 15 mins by Lineweaver-Burk plot analysis (reference value: 0.657 mM); details: Sus scrofa; time 35.0 min
[2] = compound: N=C(N)NCCC[C@H](N)C(=O)N[C@@H](Cc1c[nH]c2ccccc12)C(=O)N[C@@H](Cc1c[nH]c2ccccc12)C(=O)O; assay: Inhibition of porcine pancreatic Alpha-amylase using starch as substrate assessed as maximum velocity pre-incubated for 20 mins followed by substrate addition and measured after 15 mins by Lineweaver-Burk plot analysis (reference value: 0.666); details: Sus scrofa; time 35.0 min

B1: Pancreatic alpha-amylase (Sus scrofa), P00690 (protein)
chain: MKLFLLLSAFGFCWAQYAPQTQSGRTSIVHLFEWRWVDIALECERYLGPKGFGGVQVSPPNENIVVTNPSRPWWERYQPVSYKLCTRSGNENEFRDMVTRCNNVGVRIYVDAVINHMCGSGAAAGTGTTCGSYCNPGNREFPAVPYSAWDFNDGKCKTASGGIESYNDPYQVRDCQLVGLLDLALEKDYVRSMIADYLNKLIDIGVAGFRIDASKHMWPGDIKAVLDKLHNLNTNWFPAGSRPFIFQEVIDLGGEAIQSSEYFGNGRVTEFKYGAKLGTVVRKWSGEKMSYLKNWGEGWGFMPSDRALVFVDNHDNQRGHGAGGASILTFWDARLYKVAVGFMLAHPYGFTRVMSSYRWARNFVNGQDVNDWIGPPNNNGVIKEVTINADTTCGNDWVCEHRWRQIRNMVWFRNVVDGQPFANWWANGSNQVAFGRGNRGFIVFNNDDWQLSSTLQTGLPGGTYCDVISGDKVGNSCTGIKVYVSSDGTAQFSISNSAEDPFIAIHAESKL
Q: What does the source list for B1?
A: Km [1]: 704 µM; Vmax [2]: 0.574
